The source of these data is patent US20230060388A1 (SHANGHAI HENLIUS BIOTECH, published 2023).

Test [1] concerns the target T1, recombinant human TIGIT extracellular domain (ECD) (human, UniProt Q495A1 22-138).
T1 construct: also called h-TIGIT ECD; recombinant human TIGIT ECD
T1 sequence: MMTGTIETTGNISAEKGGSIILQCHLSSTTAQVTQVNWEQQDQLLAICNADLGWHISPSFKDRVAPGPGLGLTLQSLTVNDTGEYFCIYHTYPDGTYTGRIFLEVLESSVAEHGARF
The test is described as follows: ELISA, VHH supernatant on h-TIGIT ECD coated plates. On the procedure:
The VHH antibody genes were amplified by PCR under protocols know in the art, purified by DNA agarose gel, constructed into a phagemid vector pADL-23c (Antibody Design Labs) and transformed to TG1 electrocompetent cells (from Lucigen). Transformed TG1 cells were cultured in Y2T medium. […] Phages in supernatants of culture were harvested by centrifugation, and panning of binders to human-TIGIT (h-TIGIT) or cynomolgus-TIGIT (cyno-TIGIT) antigen was performed using streptavidin-coupled Dynabeads coated with biotinylated h-TIGIT or cyno-TIGIT ECD. After 3 rounds of panning, binders of h-TIGIT or cyno-TIGIT were eluted, which were used to infect SS320 cells. Colonies of SS320 cells were picked and cultured in Y2T medium, and IPTG was added for secretion of VHH antibodies. Supernatants with VHH antibodies were screened by ELISA assays using h-TIGIT ECD coated plates. Positive h-TIGIT binders were picked for sequencing. 29 clones with different sequences were selected. Binding ability of VHH antibodies on cyno-TIGIT was also examined by ELISA. The top 21 binders and their CDRs and VHs are shown in the Sequence Table (SEQ ID NOS: 1-84).
In general terms: In an ELISA, binding on a coated surface is turned into a signal by an enzyme label.

The target of test [2] is T1, recombinant human TIGIT extracellular …. The test is described as follows: PVR blocking ELISA (blocked ligand: PVR), IC50 plotted against the whole cell binding EC50.
In test [3] the target is T2, human TIGIT expressed on cells (stably transfected Jurkat cells) (human, UniProt Q495A1 22-244).
T2 construct: Also used here for TIGIT on primary T cells in the MLR; also called h-TIGIT; T cell immunoreceptor with Ig and ITIM domains
T2 sequence: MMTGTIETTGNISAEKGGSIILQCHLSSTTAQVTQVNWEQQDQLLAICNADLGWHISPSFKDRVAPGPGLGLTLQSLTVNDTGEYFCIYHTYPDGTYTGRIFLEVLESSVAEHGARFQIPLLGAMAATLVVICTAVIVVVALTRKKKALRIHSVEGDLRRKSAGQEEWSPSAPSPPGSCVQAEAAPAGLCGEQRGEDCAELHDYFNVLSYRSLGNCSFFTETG
The test is described as follows: whole cell binding to h-TIGIT stable cells, EC50 plotted against the blocking ELISA IC50.

B1: 4H6 VHH (VHH)
VHH: QVQLVESGGGLATAGASLILSCAASGTIFRLNRMGWFRQAPGKERERVAATIWSGRRTHYADSVKGRFTISTDNAKKTVYLRMSSLKPEDTAVYYCNYRRITPWEASGNYWGQGTQVTVSS
notes: VHH in E. coli supernatant
As for B1, the binding result in test [1] is “binds”.

B2: 12H7 VHH (VHH)
VHH: QVQLVDSGGGLVQAGGSLRLSCKVSGNFLSVSDMSWYRQAPGMERDVVATVTEHGRTTYTDSVKGRFTISRDNAEHTTYLEMNNLKPEDTAVYFCKASDVFTDAGAHEAVLIRDYWGQGTQVTVSS
notes: VHH in E. coli supernatant
With B2, in test [1], the binding result is given as “binds”.

B3: 4D11 VHH (VHH)
VHH: QVQLQESGGGLVQPGGSLRLSCAASGSISSINAMGWYRLAPGKHREFVADITNSGSTNYAASVKGRFNISRDNAKDTVYLQMNSLKFEDTAVYYCTARRSTWYISSGRGTQVTVSS
notes: VHH in E. coli supernatant
As to B3, the binding result in test [1] is reported as “binds”.

B4: 4B5 VHH (VHH)
VHH: QVKLEESGGRSVLAGGSLRLRCAGTPRTFSTFHIGWFRQAPGKEREFVAAFNWSGGRTYYADSVKGRFTISRNNGKNMVYLQMTSLTPEDTGLYYCAAARDRGLHDGTTSDSYLEGSHEYEYWGQGTQVTVSS
notes: VHH in E. coli supernatant
Take B4: the binding result in test [1] is given as “binds”.

B5: 3H7 VHH (VHH)
VHH: QVKLEESGGGLVQAGGSLRLSCAASGSILSAGVMRWYRQAPGKQRELVASIALDGSTGYYIDSVKGRFTISRDNAKNIVYLDMRSLEPADTAVYLCNANIRTDMRSAPFDHWGHGTQVTVSS
notes: VHH in E. coli supernatant
B5: the binding result in test [1] was “binds”.

B6: 4E5 VHH (VHH)
VHH: QVQLVDSGGGVVEVGASLTLSCETSGLTSSDIAVGWFRQGPGKERESVAAISSDGRFTYYAASVKGRFTISKDNAKSAAFLQMNSLKPEDTAVYYCAARDSGSGYYSRAQWYDYWGQGTQVTVSS
notes: VHH in E. coli supernatant
In the case of B6, the binding result in test [1] was “binds”.

B7: 4C5 VHH (VHH)
VHH: QVQLVDSGGGLVQAGGSLRLSCAVSGRSVSTYFVGWFRQAPGKEREFVAAIDRGSTVTRYDDSVKGRFTISRDNAKDTVYLQMNSLKPEDTAVYYCAAKAITRNFIATNDYDYWGQGTQVTVSS
notes: VHH in E. coli supernatant
For B7, in test [1], the binding result was “binds”.

B8: 4A11 VHH (VHH)
VHH: QVKLEESGGGEAQPGGSLRLSCTASGRPFSNYTMGWFRRAPGKEREFVGLAWPSPSTYVVDSVKGRFTISRDNAKNTIYLQMNSLKPEDTAIYYCAADYKSLTQSWLNAALDYWGQGTQVTVSS
notes: VHH in E. coli supernatant
Regarding B8, the binding result in test [1] is reported as “binds”.

B9: 4C6 VHH (VHH)
VHH: QVQLVESGGGLVQAGGSLRLACAASGRTFSSYPMGWFRQGPGKERESVAAISSDGRFTYYAASVKGRFTISKDNAKSAAFLQMNSLKPEDTAVYRCAVDPTGWGTIEADFRSWGQGTQVTVSS
notes: VHH in E. coli supernatant
Turning to B9, in test [1], the binding result was “binds”.

B10: 1A10 VHH (VHH)
VHH: QVQLVESGGGVVQPGRSLRLSCAASGNSFSSYPMGWFRQAPGKERESVAAISSDGRFSYYADSVKGRFTISRDNSKNTLYLQMNSLRAEDTAVYYCACRDSGSGYYSRAQWYDYWGQGTLVTVSS
For B10, the binding result in test [2] and in test [3] was “binds” each time.

B11: 5E8 VHH (VHH)
VHH: QVQLVESGGGVVQPGRSLRLSCAASGPSFSSYPMGWFRQAPGKERESVAAQSSDGRFTYYADSVKGRFTISRDNSKNTLYLQMNSLRAEDTAVYYCAARDSGSGYYSRAQWYDYWGQGTLVTVSS
B11: the binding result in test [2] and in test [3] was “binds” throughout.

B12: 2A6 VHH (VHH)
VHH: QVQLVESGGGVVQPGRSLRLSCAASGPSFSLYPMGWFRQAPGKERESVAAISSDRRFTYYADSVKGRFTISRDNSKNTLYLQMNSLRAEDTAVYYCAARDSGSGYYSRAQWYDYWGQGTLVTVSS
Take B12: the binding result in test [2] and in test [3] was “binds” in each case.

B13: 2C5 VHH (VHH)
VHH: QVQLVESGGGVVQPGRSLRLSCAASGPSFSTYPMGWFRQAPGKERESVAAISSQGRFTYYADSVKGRFTISRDNSKNTLYLQMNSLRAEDTAVYYCAARDSGSGYYSRAQWYDYWGQGTLVTVSS
For the molecule B13, the binding result in test [2] and in test [3] was “binds” in each case.

B14: 2D5 VHH (VHH)
VHH: QVQLVESGGGVVQPGRSLRLSCAASGPSFSSSPMGWFRQAPGKERESVAAISWDGRFTYYADSVKGRFTISRDNSKNTLYLQMNSLRAEDTAVYYCAARDSGSGYYSRAQWYVYWGQGTLVTVSS
B14: the binding result in test [2] and in test [3] was “binds” each time.

B15: 1C7 VHH (VHH)
VHH: QVQLVESGGGVVQPGRSLRLSCAASGPSFSSYPMGWFRQAPGKERESVAAISSRGRFTYYADSVKGRFTISRDNSKNTLYLQMNSLRAEDTAVYYCAARGSGSGYYSRAQWYDYWGQGTLVTVSS
Regarding B15, the binding result in test [2] and in test [3] was “binds” in each case.

B16: 6D12 VHH (VHH)
VHH: QVQLVESGGGVVQPGRSLRLSCAASGPSFSTYPMGWFRQAPGKERESVAAISSDGVFTYYADSVKGRFTISRDNSKNTLYLQMNSLRAEDTAVYYCAARDSGSGYYSREQWYDYWGQGTLVTVSS
Turning to B16, the binding result in test [2] and in test [3] was “binds” throughout.

B17: 5G10 VHH (VHH)
VHH: QVQLVESGGGVVQPGRSLRLSCAASGPRFSSYPMGWFRQAPGKERESVAAISSDGRFTYYADSVKGRFTISRDNSKNTLYLQMNSLRAEDTAVYYCAARDSGSGYYSRAQWYDGWGQGTLVTVSS
Consider B17, for which the binding result in test [2] and in test [3] was “binds” in each case.

B18: 7B11 VHH (VHH)
VHH: QVQLVESGGGVVQPGRSLRLSCAASGPSFLIYPMGWFRQAPGKERESVAAISSDGRFWYYADSVKGRFTISRDNSKNTLYLQMNSLRAEDTAVYYCAARDSGSGYYSRVQWYDYWGQGTLVTVSS
For the molecule B18, the binding result in test [2] and in test [3] was “binds” throughout.

B19: 2A5 VHH (VHH)
VHH: QVQLVESGGGVVQPGRSLRLSCAASGPSFSSYPMGWFRQAPGKERESVAAISSVGRFTYYADSVKGRFTISRDNSKNTLYLQMNSLRAEDTAVYYCAARDSGSGYYSRWQWYDYWGQGTLVTVSS
Turning to B19, the binding result in test [2] and in test [3] was “binds” each time.

B20: 6E9 VHH (VHH)
VHH: QVQLVESGGGVVQPGRSLRLSCAASGPSRSSYPMGWFRQAPGKERESVAAISSDGKFTYYADSVKGRFTISRDNSKNTLYLQMNSLRAEDTAVYYCAARDSGSGYYSRANWYDYWGQGTLVTVSS
Take B20: the binding result in test [2] and in test [3] was “binds” in each case.

B21: 1D11 VHH (VHH)
VHH: QVQLVESGGGVVQPGRSLRLSCAASGPSFSSSPMGWFRQAPGKERESVAAISSMGRFTYYADSVKGRFTISRDNSKNTLYLQMNSLRAEDTAVYYCAARDSGSGYYSRAQWYDYWGQGTLVTVSS
As for B21, the binding result in test [2] and in test [3] was “binds” throughout.

B22: 5B5 VHH (VHH)
VHH: QVQLVESGGGVVQPGRSLRLSCAASGPSFSSYPMGWFRQAPGKERESVAAISSDTRFTYYADSVKGRFTISRDNSKNTLYLQMNSLRAEDTAVYYCAARDSGSGYYSRAQWYDRWGQGTLVTVSS
Consider B22, for which the binding result in test [2] and in test [3] was “binds” each time.

B23: 6D8 VHH (VHH)
VHH: QVQLVESGGGVVQPGRSLRLSCAASGPSFSSKPMGWFRQAPGKERESVAARSSDGRFTYYADSVKGRFTISRDNSKNTLYLQMNSLRAEDTAVYYCAARDSGSGRYSRAQWYDYWGQGTLVTVSS
Take B23: the binding result in test [2] and in test [3] was “binds” throughout.

B24: 6B11 VHH (VHH)
VHH: QVQLVESGGGVVQPGRSLRLSCAASGPSFPSYPMGWFRQAPGKERESVAAISSRGRFTYYADSVKGRFTISRDNSKNTLYLQMNSLRAEDTAVYYCAARDSGSGYYSRLQWYDYWGQGTLVTVSS
Regarding B24, the binding result in test [2] and in test [3] was “binds” in each case.
